Experimental data taken from the supplement of paper PMC9170038.

How the values were obtained:
MS2 coat protein [1] = assay: apparent KD of MS2 coat protein, switch ON state; designed switch direction (-1 OFF switch, 1 ON switch): -1; higher = weaker reporter binding; settings: FMN input: 0 or 200 uM; Eterna round: R93 (includes R88 designs)
Procedure, shortened: (§1)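 Apparent KD is reported per design as the median of normalised binding-curve fits across its clusters. The RNA switches were made by on-chip transcription from Illumina sequencing clusters. SNAP-549-labelled MS2 coat protein was then added in twofold steps (0.7 or 1.5 nM to 3 µM; 0.8–1.5 h to 10–20 min per step) in 100 mM Tris-HCl pH 7.5, 80 mM KCl, 4 mM MgCl2, without or with constant ligand.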

MS2 coat protein [2] = assay: apparent KD of MS2 coat protein, switch OFF state (with FMN for OFF switches, without FMN for ON switches); designed switch direction (-1 OFF switch, 1 ON switch): -1; higher = weaker reporter binding; settings: FMN input: 0 or 200 uM; Eterna round: R93 (includes R88 designs)
Procedure, shortened: as §1

Sequence | apparent KD of MS2 coat protein (MS2 coat protein [1]) [nM] | apparent KD of MS2 coat protein (MS2 coat protein [2]) [nM]
AAACUACUAGGAUAUACAACGGUGUCCUAACUACUAAGAAGACAUGAGGAUCACCCAUGUAGAAGGAGUAGUGA [Sosogeen] | 50.3 | 37.8
AACAAACAUGAGGAUCACCCAUGUAAGGAUAUACGAAACAAACAAACAAACAAACAAAGUAGAAGGUACAGGAA [Exclusive 1] | 17.3 | 16.3
AAGAUCAGAGGAUAUACAGAAGGUGAUGAAAACAUCGCCAAACAUGAGGAUCACCCAUGUAGAAGGCUGAUCAA [JL EX2 2] | 119 | 204
GAAAAACAUGAGGAUCACCCAUGUCAGGAUAUACAAAAAUAAAUAAAAAUAAAAUAAAGUAGAAGGGACAAAAG [Mat - Same state - Mayanna Mod - D110] | 52.9 | 57.3
AAAACUGGAGGAUAUACAUGAGGAUCACCCAUGUGUGGGUGGGCUGUGUCGGCGUCAGGUAGAAGGCCACAAAA [Gilly Gone Silly 33 - Jieux - Exclusion 3] | 201 | 108
AAACCACAUGAGGAUCACCCAUGUGAGGAUAUGAACGAAAAUAAAUAAAAAUAAAAGUUCAGAAGGCACAAAAA [66%, Wbt, 12] | 21.3 | 23.6
CAAGGUGGAGGAUAUACAUGAGGAUCACCCAUGUAAGGACAAUAAAUAAGAUGAAGAAGUAGAAGGCCACUCAA [e3-3] | 41.5 | 42.1
AGUCAGAGAGGAUAUACAUAGGAAAAAAAAGUAAGAUCCCUACAUGAGGAUCACCCAUGUAGAAGGCUCUGACA [Ex2 Design 140: Sub-opt 4] | 141 | 87.5
GACACCGGAGGAUAUACAAGUCCUUACUGUCUAAAACCAUGACAUGAGGAUCACCCAUGUAGAAGGCCGAAAAG [Atbela] | 63.3 | 118
GAAAAGUGAGGAUAUUCGGAUAGGAAAACGAAAACCUAUCCGAAGAAGGCACAUGAGGAUCACCCAUGUGGAAA [Mat - Exaclusion 4 - Eli mod - D45] | 30.1 | 31.5
AAAGUGUGAGGAUAUGUCAAAGGUCACGAAAGUGACAAAGGACAGAAGGUACAUGAGGAUCACCCAUGUAAAAA [65% + different segment] | 39.8 | 32
CACGGGUUAGGAUAUGCAUGGUGAAAAGACGCGAUCCUUAGACAUGAGGAUCACCCAUGUAGAAGGAACGCGAU [Reonisar] | 17.2 | 15
AACUGACAUGAGGAUCACCCAUGUCAGGAUAUGACUUCGAAAAAUAAAAUAAACGAUGUCAGAAGGGACAUGGG [Design 68: Sub-opt O] | 21.2 | 19
AAGAACUCAGGAUAUACUAAAGAAAUGAAAAGAAAGAAAGAACAUGAGGAUCACCCAUGUAGAAGGGAGAAGAA [Qareh Khawoserre] | 86.4 | 35.4
AGUCAGAGAGGAUAUACAUGGAAAAAAAAAGUAAGAUCCCUACAUGAGGAUCACCCAUGUAGAAGGCUCUGACA [Ex2 Design 138: Sub-opt 2] | 27.5 | 13.2
AGCUAGUCAGGAUAUACGAACAGGUCAAAAGACCUGAAGGGACAUGAGGAUCACCCAUGUAGAAGGGACUAGCA [Mat - Exclusion 2 - JL mod - D28] | 25.8 | 131
GAAGAACAUGAGGAUCACCCAUGUCAGGAUAUGAGCAAGGGAAUAAUAACUUGCGGAAUCAGAAGGGACAAGAA [Ex 1 May 51] | 31.7 | 43.6
AACAGACAUGAGGAUCACCCAUGUGAGGAUAUCCCAAUCGAUAGAACUAGAAUGACAAGGAGAAGGCACAGCAA [JR_Exc001_Sub005] | 70.1 | 70.1
GGCUAGUCAGGAUAUACGAACAUGUCAAAAGACGUGAAGGGACAUGAGGAUCACCCAUGUAGAAGGGACUAGCA [salish99-ex2-12] | 31.5 | 183
UAAAGACAUGAGGAUCACCCAUGUGAGGAUAUUGGUGACUAUAAAAAAAAAUAGUCACCGAGAAGGCAUAGGAA [JR_Exc001_Sub302] | 31 | 42.4
AAAUUGUCAGGAUAUCGUAUAACUGGGAAAACCAGGAGAUACGAGAAGGGACAUGAGGAUCACCCAUGUAAAAC [May 94] | 51.6 | 65.8
ACCGAUCGAGGAUAUACAUGAGGAUCACCCAUGUAACCCAGAAGAAAGGCCUCAGGAUGUAGAAGGCGACGCAA [JR_Exc003_Sub406] | 16.3 | 17.7
AAAAAACAUGAGGAUCACCCAUGUGAGGAUAUGCAAAACCCAUAUAAAAAGGGAAAAAGUAGAAGGCACAAAAA [wbt round 1 mod 10] | 24.1 | 28.6

Sequence | apparent KD of MS2 coat protein (MS2 coat protein [1]) [nM] | apparent KD of MS2 coat protein (MS2 coat protein [2]) [nM]
AAGAAGUCAGGAUAUGCUGCUCGUCACAAAAGUGAUGAGUAGCAGAAGGGACAUGAGGAUCACCCAUGUAAAAA [Opal 33] | 49.1 | 42
AGGGAGUCAGGAUAUCGGAAAAAAAAACAACGAAAAAAAGACGAGAAGGGACAUGAGGAUCACCCAUGUAAGAA [milkweed 16] | 41.4 | 23.5
GGAAAACAUGAGGAUCACCCAUGUGAGGAUAUCGAUGUCCAAAAAAGAGUGCGGGACUCGAGAAGGCACUUGGA [salish99-ex1-43] | 49.3 | 32.5
AAAAAACAUGAGGAUCACCCAUGUGAGGAUAUCGAGAAGAAGAAGAAGAAGAAGAGAACGAGAAGGCACAAAAA [Exclusion 1 - G's] | 25.8 | 29.9
AAAAGUGGAGGAUAUACAUGAGGAUCACCCAUGUGUAAAAAUAAAUACACAAAAGAAAGUAGAAGGCCACAAAG [Mat - Exclusion 3 - Mayanna mod - D117] | 32.2 | 128
AACAUACAUGAGGAUCACCCAUGUCAGGAUAUGCCGGGUUAGAACCAACUAAAAAAACGUAGAAGGGACAAAAA [Bilbo Confounded 5 - Jieux - Exclusion 1] | 63.3 | 46.7
AGUUGGCGAGGAUAUACAUGAGGAUCACCCAUGUAAAAUAAAUAAAAAAUAAGGGAAAGUAGAAGGCGCUGACA [73%, Moding Norbert Elias, 14] | 46.5 | 112
AACUGACAUGAGGAUCACCCAUGUCAGGAUAUGCUUCAUAAAAACAAACAAAAAUGAUGCAGAAGGGACAUGGA [Design 30 :P Sub-opt 6] | 19.6 | 32.3
AGAAAACAUGAGGAUCACCCAUGUCAGGAUAUGAAAAAGAAAAGAAAAGAAAGAAGAAUCAGAAGGGACAAGAA [Senedj] | 38.2 | 40.3
AGUCUGAGAGGAUAUACAUGGAAAAAAAAAGUUAGAUCCCUACAUGAGGAUCACCCAUGUAGAAGGCUCUGACA [Ex2 Design 149: Sub-opt 13] | 45.8 | 15.2
AACUGACAUGAGGAUCACCCAUGUCAGGAUAUGAUAUGUAAAAAAAUAAAAAUACUUAUCAGAAGGGACAUGGG [Design 39: Sub-opt A] | 18.2 | 20
AAAUAGCAAGGAUAUACAUGAGGAUCACCCAUGUGACCCAGGUAUGGCAUAGACUAGAGUAGAAGGUGCAAAUA [Mod 5 of Ex 3 Tesla 8 - Jieux - Exclusion 3] | 88.1 | 114
UAAAACCUAGGAUAUACAUGAGGAUCACCCAUGUGGCACUCCGCAGGCAUUGUUCCCAGUAGAAGGAGGACACG [Inan] | 20.6 | 23.9
GAAGAACAUGAGGAUCACCCAUGUCAGGAUAUACAGAAGGGAAUAAUAUAAUCUGGAAGUAGAAGGGACAAGAA [Ex 1 May 45] | 31.8 | 51.4
GGUUGACAAGGAUAUACAUGAGGAUCACCCAUGUGAGAGAAAAAAGUGAGAAAGAAAAGUAGAAGGUGUUGACG [salish99-ex3-62] | 31 | 85
AGAAAGCGAGGAUAUACUAAGAAACCUCAAAGAAAGAAGAAACAUGAGGAUCACCCAUGUAGAAGGCGCAAAGA [JR_Exc002_Sub002] | 28.3 | 70.8
CUCAAGUAAGGAUAUCCAAGAAAAGAAGAGAAAGAAAAGAAGGAGAAGGUACAUGAGGAUCACCCAUGUAAGAA [EteRNA is fun!] | 28.7 | 23.7
AGCUAGAGAGGAUAUACAUAAAAAAAAAAAGUCUGAUCCCUACAUGAGGAUCACCCAUGUAGAAGGCUCUGGCA [Ex2 Design 157: Sub-opt 21] | 38.1 | 38.5
AACUCGUCAGGAUAUGCGCACAGAUAAUACGCUACACAAAUGCAGAAGGGACAUGAGGAUCACCCAUGUAAAUA [JR_Exc004_Sub504] | 42.6 | 31.2
AACAGUACAGGAUAUACAUGAGGAUCACCCAUGUGACAGAAAUAAAACAAAAAUAAAAGUAGAAGGGUACUGGA [Ruby 42] | 31 | 61.2
AAAAACUGAGGAUAUACAUGAGGAUCACCCAUGUAAAAAAAAAAAAAGGGAAAAAAAAGUAGAAGGCAGAAAAA [Nebiriau II] | 26.1 | 41
UAAAAACAUGAGGAUCACCCAUGUAAGGAUAUGCUGAAAAACACGGAAAAAACGUGCAGCAGAAGGUACAAAAU [Mat - Exclusion 1 - Eli mod - D98] | 19 | 47.6
